Columns and labels:
[1] = biological target: Versican treated with chondroitinase ABC (core protein) (bovine) (UniProt P81282); test: ELISA; solid-phase binding assay: proteoglycan or versican domain coated on a 96-well plate (0.25 ug/ml; 0.05-1 ug/ml in Fig. 2A) at 4 C overnight, blocked with 3% BSA in TTBS or casein; rat tail type I collagen 0.1-5 ug/ml in 1% BSA/PBS overnight at RT; detected with biotin-conjugated anti-collagen I antibody, streptavidin-HRP and TMB; Kd from Scatchard plot
[2] = biological target: Native versican isolated from bovine liver (bovine) (UniProt P81282); test: as above

Sequence of Rat tail type I telo-collagen, P02454 152-1207; P02466 86-1125 (complex; GAG side chains removed with chondroitinase ABC) (P02454 152-1207): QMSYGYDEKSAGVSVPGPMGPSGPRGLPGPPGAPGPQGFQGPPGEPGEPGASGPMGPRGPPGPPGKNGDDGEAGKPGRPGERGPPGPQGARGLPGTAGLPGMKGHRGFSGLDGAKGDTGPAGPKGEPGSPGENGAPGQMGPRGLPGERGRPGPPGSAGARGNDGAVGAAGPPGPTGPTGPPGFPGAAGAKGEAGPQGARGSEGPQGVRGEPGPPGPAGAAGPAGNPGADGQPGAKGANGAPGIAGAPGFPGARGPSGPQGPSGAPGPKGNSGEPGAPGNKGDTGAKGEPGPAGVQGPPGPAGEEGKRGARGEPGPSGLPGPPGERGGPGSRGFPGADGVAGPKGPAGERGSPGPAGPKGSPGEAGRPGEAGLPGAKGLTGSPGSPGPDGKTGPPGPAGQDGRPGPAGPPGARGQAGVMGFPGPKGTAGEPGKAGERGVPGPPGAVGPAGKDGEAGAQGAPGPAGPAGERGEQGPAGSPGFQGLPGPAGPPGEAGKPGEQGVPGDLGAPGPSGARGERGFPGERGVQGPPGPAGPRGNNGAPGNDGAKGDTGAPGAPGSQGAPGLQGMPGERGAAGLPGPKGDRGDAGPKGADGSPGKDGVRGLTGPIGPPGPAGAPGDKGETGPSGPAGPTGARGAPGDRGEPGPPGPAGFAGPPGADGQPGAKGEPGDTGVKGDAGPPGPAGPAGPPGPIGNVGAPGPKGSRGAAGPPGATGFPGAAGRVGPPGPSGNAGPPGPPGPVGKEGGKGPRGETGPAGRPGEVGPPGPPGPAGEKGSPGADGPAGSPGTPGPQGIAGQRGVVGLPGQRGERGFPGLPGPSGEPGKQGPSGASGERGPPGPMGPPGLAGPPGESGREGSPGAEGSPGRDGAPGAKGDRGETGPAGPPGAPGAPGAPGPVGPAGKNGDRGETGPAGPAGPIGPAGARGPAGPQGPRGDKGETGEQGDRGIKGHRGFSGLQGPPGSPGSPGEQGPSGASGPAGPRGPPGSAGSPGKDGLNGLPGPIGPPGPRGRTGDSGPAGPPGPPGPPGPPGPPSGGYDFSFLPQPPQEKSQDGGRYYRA
Sequence of Rat tail type I telo-collagen, P02454 152-1207; P02466 86-1125 (complex; GAG side chains removed with chondroitinase ABC) (P02466 86-1125): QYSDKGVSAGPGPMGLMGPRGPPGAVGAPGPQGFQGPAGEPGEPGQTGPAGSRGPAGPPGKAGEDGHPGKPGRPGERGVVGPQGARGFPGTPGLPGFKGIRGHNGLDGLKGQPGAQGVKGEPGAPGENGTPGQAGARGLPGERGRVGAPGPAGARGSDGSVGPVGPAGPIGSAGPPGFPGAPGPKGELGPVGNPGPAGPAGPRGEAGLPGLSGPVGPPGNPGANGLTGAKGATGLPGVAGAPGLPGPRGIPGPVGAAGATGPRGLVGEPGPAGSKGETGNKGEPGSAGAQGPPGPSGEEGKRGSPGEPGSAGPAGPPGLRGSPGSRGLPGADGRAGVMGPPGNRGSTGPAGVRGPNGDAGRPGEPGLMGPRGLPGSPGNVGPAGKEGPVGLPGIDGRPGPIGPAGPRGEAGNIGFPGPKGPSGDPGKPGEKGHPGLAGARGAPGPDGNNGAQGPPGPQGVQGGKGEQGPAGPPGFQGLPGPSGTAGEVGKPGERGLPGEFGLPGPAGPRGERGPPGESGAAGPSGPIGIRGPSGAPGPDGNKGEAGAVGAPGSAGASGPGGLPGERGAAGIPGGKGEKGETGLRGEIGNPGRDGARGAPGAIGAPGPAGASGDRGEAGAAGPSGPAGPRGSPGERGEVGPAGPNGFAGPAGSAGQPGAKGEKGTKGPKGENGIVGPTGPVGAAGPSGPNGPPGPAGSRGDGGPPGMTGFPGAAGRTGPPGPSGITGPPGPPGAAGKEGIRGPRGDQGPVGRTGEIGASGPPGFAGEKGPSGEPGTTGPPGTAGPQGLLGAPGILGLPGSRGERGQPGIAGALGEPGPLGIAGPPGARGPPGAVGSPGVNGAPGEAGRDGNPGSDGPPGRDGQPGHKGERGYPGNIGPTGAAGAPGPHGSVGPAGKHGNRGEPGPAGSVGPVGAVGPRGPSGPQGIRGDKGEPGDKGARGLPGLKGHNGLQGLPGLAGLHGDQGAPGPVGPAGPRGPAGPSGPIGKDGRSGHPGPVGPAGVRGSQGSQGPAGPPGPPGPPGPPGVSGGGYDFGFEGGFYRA
Sequence of Rat tail type I telo-collagen, P02454 152-1207; P02466 86-1125 (complex; chondroitin sulfate GAG side chains) (P02454 152-1207): as the sequence (P02454 152-1207) above
Sequence of Rat tail type I telo-collagen, P02454 152-1207; P02466 86-1125 (complex; chondroitin sulfate GAG side chains) (P02466 86-1125): as the sequence (P02466 86-1125) above

Substance	Kd [1] [nM]	Kd [2] [nM]
Rat tail type I telo-collagen, P02454 152-1207; P02466 86-1125 (complex; GAG side chains removed with chondroitinase ABC)	2.2	–
Rat tail type I telo-collagen, P02454 152-1207; P02466 86-1125 (complex; chondroitin sulfate GAG side chains)	–	1.3

Source: PMC11626796
